This assay has as its target CD44 existing on the cell surface of CTLs (human) (UniProt P16070). The experiment in a line: cell-based or functional assay.
UniProt P16070, sequence (P16070 21-742): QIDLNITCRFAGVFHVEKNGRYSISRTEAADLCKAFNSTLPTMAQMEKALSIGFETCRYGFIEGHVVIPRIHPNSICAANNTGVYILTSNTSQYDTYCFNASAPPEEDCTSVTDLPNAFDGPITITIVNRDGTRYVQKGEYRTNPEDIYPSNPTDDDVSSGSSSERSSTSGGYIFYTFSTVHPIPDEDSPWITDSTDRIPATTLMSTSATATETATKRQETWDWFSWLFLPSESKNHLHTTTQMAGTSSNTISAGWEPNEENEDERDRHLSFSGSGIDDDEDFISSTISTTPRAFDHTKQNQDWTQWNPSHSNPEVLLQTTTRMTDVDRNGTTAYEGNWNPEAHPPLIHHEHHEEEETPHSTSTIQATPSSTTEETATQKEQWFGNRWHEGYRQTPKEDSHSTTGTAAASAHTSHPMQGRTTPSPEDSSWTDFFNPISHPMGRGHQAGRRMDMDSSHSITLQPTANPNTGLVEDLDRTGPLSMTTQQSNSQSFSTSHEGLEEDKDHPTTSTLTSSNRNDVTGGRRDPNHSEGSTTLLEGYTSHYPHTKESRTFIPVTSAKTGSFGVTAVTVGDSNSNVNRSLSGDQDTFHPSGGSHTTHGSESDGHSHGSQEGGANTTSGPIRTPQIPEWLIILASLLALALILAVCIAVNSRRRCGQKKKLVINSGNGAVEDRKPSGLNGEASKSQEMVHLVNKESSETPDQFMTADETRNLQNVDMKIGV

For “anti-CD44 antibody (hyaluronic acid-bound Non-blocking antibody; HA Non-blocking Anti-CD44 Antibody), monoclonal, manufactured by Ancell”, the Cytotoxic Activity (%), E/T Ratio 3, peptide pulse +, after expansion with antibody turned out to be 32.4%; the Cytotoxic Activity (%), E/T Ratio 3, peptide pulse -, after expansion with antibody was 10.3%; the Cytotoxic Activity (%), E/T Ratio 10, peptide pulse +, after expansion with antibody came out at 60.1%; the Cytotoxic Activity (%), E/T Ratio 10, peptide pulse -, after expansion with antibody came out at 14.2%. Besides, the Cytotoxic Activity (%), E/T Ratio 30, peptide pulse +, after expansion with antibody turned out to be 105% and the Cytotoxic Activity (%), E/T Ratio 30, peptide pulse -, after expansion with antibody came to 21.2%.

These data come from patent US20050042208A1.
